Results: PMC7673040

Key:
[1] = target: ribosome-nascent chain complex bearing the first ~90 amino acids of pPL(ss), labelled with BODIPY-FL on the nascent chain (bovine); assay: other fluorescence titration; equilibrium FRET titration: SRP^TMR titrated into 1 nM RNC^BDP; donor emission at 517 nm; fit to Eq. (4); 25 °C, Assay buffer with 1 mg/mL BSA; no NAC
[2] = target: ribosome-nascent chain complex bearing the first ~90 amino acids of pPL(ss), labelled with BODIPY-FL on the nascent chain (bovine); assay: other fluorescence titration; equilibrium FRET titrations of SRP^TMR into 1 nM RNC^BDP with unlabeled NAC premixed (0-400 nM for RNC(ss), 0-62.5 nM for RNC(ssmt)); global fit to the anti-cooperative co-binding model, Eq. (8); 25 °C, Assay buffer with 1 mg/mL BSA
[3] = target: ribosome-nascent chain complex bearing the first ~90 amino acids of pPL(ssmt), labelled with BODIPY-FL on the nascent chain (bovine) (UniProt P01239); assay: as above
[4] = target: signal recognition particle (SRP), human, labelled with Cy3B on SRP54 (C47) (human) (UniProt P61011); assay: stopped-flow FRET kinetics
[5] = target: signal recognition particle (SRP), human, labelled with Cy3B on SRP54 (C47) (human) (UniProt P61011); assay: stopped-flow FRET kinetics; as a1 but on RNC(ssmt2) with HSW(RRL)
[6] = target: signal recognition particle (SRP), human, labelled with Cy3B on SRP54 (C47) (human) (UniProt P61011); assay: stopped-flow FRET kinetics; as a1 but on RNC(ssmt2); no NAC, no HSW
[7] = target: signal recognition particle (SRP), human, labelled with Cy3B on SRP54 (C47) (human) (UniProt P61011); assay: stopped-flow FRET kinetics; as a1 but on RNC(ssmt2) with 300 nM NAC
[8] = target: signal recognition particle (SRP), human, labelled with Cy3B on SRP54 (C47) (human) (UniProt P61011); assay: stopped-flow FRET kinetics; as a1 but on RNC(ssmt) with 300 nM NAC (saturating)
[9] = target: signal recognition particle (SRP), human, labelled with Cy3B on SRP54 (C47) (human) (UniProt P61011); assay: stopped-flow FRET kinetics; as a1 but SRP^Cy3B pre-incubated with 200 nM RNC(ssmt); no NAC, no HSW
[10] = target: signal recognition particle (SRP), human, labelled with Cy3B on SRP54 (C47) (human) (UniProt P61011); assay: stopped-flow FRET kinetics; as a1, on RNC(ssmt) of different nascent chain lengths, no NAC; fit to a constant kon
[11] = target: signal recognition particle (SRP), human, labelled with Cy3B on SRP54 (C47) (human) (UniProt P61011); assay: stopped-flow FRET kinetics; as a1 but on RNC(ssmt) with HSW(RRL) (high salt wash from 200 nM rabbit reticulocyte ribosome)
[12] = target: signal recognition particle (SRP), human, labelled with Cy3B on SRP54 (C47) (human) (UniProt P61011); assay: stopped-flow FRET kinetics; as a1, on RNC(ssmt) of different nascent chain lengths, with 300 nM NAC; fit to a constant kon
[13] = target: signal recognition particle (SRP), human, labelled with Cy3B on SRP54 (C47) (human) (UniProt P61011); assay: stopped-flow FRET kinetics; as a1, on RNC(ss) of different nascent chain lengths, no NAC; kon against nascent chain length fit to Eq. (18)
[14] = target: signal recognition particle (SRP), human, labelled with Cy3B on SRP54 (C47) (human) (UniProt P61011); assay: stopped-flow FRET kinetics; as a1, on RNC(ss) of different nascent chain lengths, with 300 nM NAC; kon against nascent chain length fit to Eq. (18)

| Substance | Kd [1] | KD for NAC-bound RNC (α•Kd,SRP) [2] | Kd [2] | KD for NAC-bound RNC (α•Kd,SRP) [3] | kon [4] | fold lower kon than on RNC(ss) [5] | fold lower kon than on RNC(ss) [6] | fold lower kon than on RNC(ss) [7] | fold lower kon than on RNC(ss) [8] | kon [9] | kon [10] | fold reduction of kon by HSW(RRL) [11] | kon [12] | kon,max (fit of kon against nascent chain length) [13] | kon,min (fit of kon against nascent chain length) [13] | kon,max (fit of kon against nascent chain length) [14] | kon,min (fit of kon against nascent chain length) [14] |
| --- | --- | --- | --- | --- | --- | --- | --- | --- | --- | --- | --- | --- | --- | --- | --- | --- | --- |
| signal recognition particle (SRP), human, labelled with tetramethylrhodamine (TMR) at residue 12 of SRP54 (from UniProt P61011 1-504; P09132 1-144; P49458 1-86; P37108 1-136; Q9UHB9 1-627; O76094 1-671) (complex) | 0.44 nM | 2.4 nM | 0.36 nM | 4.5 nM | – | – | – | – | – | – | – | – | – | – | – | – | – |
| soluble SRP receptor SRαβΔTM with the GTPase-deficient mutation SRα R458A, labelled with Atto647n (from UniProt P08240 1-638; Q9Y5M8 1-271) (complex) | – | – | – | – | 1e+06 M⁻¹ s⁻¹ | 100 fold | 20 fold | 100 fold | 40 fold | 500000 M⁻¹ s⁻¹ | 570000 M⁻¹ s⁻¹ | 20 fold | 13000 M⁻¹ s⁻¹ | 940000 M⁻¹ s⁻¹ | 400000 M⁻¹ s⁻¹ | 1.3e+06 M⁻¹ s⁻¹ | 22000 M⁻¹ s⁻¹ |
